{"source": "paper PMC11602157", "about": "“ZNF512B binds RBBP4 via a variant NuRD interaction motif and aggregates chromatin in a NuRD complex-independent manner” (Nucleic Acids Research, 2024)", "biological_target": "RBBP4, recombinant, for fluorescence polarization (human), Q09028", "sequence (Q09028 whole entry)": "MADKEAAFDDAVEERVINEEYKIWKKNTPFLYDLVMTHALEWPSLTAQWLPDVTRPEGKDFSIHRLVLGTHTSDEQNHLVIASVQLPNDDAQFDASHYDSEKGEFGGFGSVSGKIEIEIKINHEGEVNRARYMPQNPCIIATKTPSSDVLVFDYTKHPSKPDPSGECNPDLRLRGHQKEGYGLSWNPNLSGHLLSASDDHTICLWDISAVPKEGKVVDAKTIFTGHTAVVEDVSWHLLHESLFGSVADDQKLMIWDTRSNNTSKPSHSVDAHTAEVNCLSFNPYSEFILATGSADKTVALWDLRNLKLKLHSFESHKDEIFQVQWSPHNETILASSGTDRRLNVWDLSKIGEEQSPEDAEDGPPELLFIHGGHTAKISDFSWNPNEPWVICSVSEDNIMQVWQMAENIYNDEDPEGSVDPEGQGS", "assay": "fluorescence polarisation; competitive: unlabeled peptide (1.0–0.0 mM series) added to preformed complex of 1 nM FAM tracer and 40 nM RBBP4; 50 mM Tris-HCl pH 7.5, 150 mM NaCl, 0.02% Triton X-100; read after 60 min; ki from IC50", "data": [{"binder": "KHRRKQKTPKKF (modifications not checked)", "note": "[ZNF512B NIM peptide (unlabeled ZNF512B iNIM)]", "values": [{"measurement": "Ki", "value": 19, "unit": "nM"}]}]}
